From the RNAGym collection of RNA variant scans (doi:10.7554/elife.80360) come the findings set out here.

First the molecules themselves.
B1: HDV Ribozyme (parent)
chain: GGCCGGCAUGGUCCCAGCCUCCUCGCUGGCGCCGGCUGGGCAACAUUCCGAGGGGACCGUCCCCUCGGUAAUGGCGAAUGGGACCCA

The variants in the series derive from B1. The series can be described thus: self-cleavage, relative activity (ratio to wild type); higher = more cleavage; co-transcriptional.
For GGCCGGCAUGGUCCCUGCCUCCUCGCUGGCGCCGGCUGGGCAACAUUCCGAGGGGACCGUCCCCUCGGUAAUGGCGAAUGGGACCCA [A16U], the self-cleavage worked out at 0.984.

In the case of GGCCGGCAUGGUCCCGGCCUCCUCGCUGGCGCCGGCUGGGCAACAUUCCGAGGGGACCGUCCCCUCGGUAAUGGCGAAUAGGACCCA [A16G G80A], the self-cleavage turned out to be 0.243. For GGCCGGCAUGGUCCCGGCCUCCUCGCUGGCGCCGGCUGGGCAACAUUCCGAGGGGACCGUCCCCUCGGUAAUGGCGAAUCGGACCCA [A16G G80C], the self-cleavage came out at 0.249. Then GGCCGGCAUGGUCCCGGCCUCCUCGCUGGCGCCGGCUGGGCAACAGUCCGAGGGGACCGUCCCCUCGGUAAUGGCGAAUGGGACCCA [A16G U46G], with 0.554; and GGCCGGCAUGGUCCCUGCCUCCUCGCUGGCGCCGGCUGGGCAACAUUCCGGGGGGACCGUCCCCUCGGUAAUGGCGAAUGGGACCCA [A16U A51G], with 1.04; and GGCCGGCAUGGUCCCGGCCUCCUCGCUGGCGCCGGCUGGGCAACAUUCCGAGGGGACCGUCCCCUCGGAAAUGGCGAAUGGGACCCA [A16G U69A], with 0.985.

For the variant GGCCGGCAUGGUCCCGGCCUCCUCGCUGGCGCCGGCUGGGCAACAUUCCGAGGGGACCGUCCCCUCGGGAAUGGCGAAUGGGACCCA [A16G U69G], the self-cleavage was determined as 0.962. Then GGCCGGCAUGGUCCCGGCCUCCUCGCUGGCGCCGGCUGGGCAACAUUCCUAGGGGACCGUCCCCUCGGUAAUGGCGAAUGGGACCCA [A16G G50U], with 1.02; and GGCCGGCAUGGUCCCGGCCUCCUCGCUGGCGCCGGCUGGGCAACAUUCCCAGGGGACCGUCCCCUCGGUAAUGGCGAAUGGGACCCA [A16G G50C], with 0.95. Then GGCCGGCAUGGUCCCGGCCUCCUCGCUGGCGCCGGCUGGGCAACAUUCCGAGGGGACCGUCCCCUCGGUAAUGUCGAAUGGGACCCA [A16G G74U], with 0.494; and GGCCGGCAUGGUCCCGGCCUCCGCGCUGGCGCCGGCUGGGCAACAUUCCGAGGGGACCGUCCCCUCGGUAAUGGCGAAUGGGACCCA [A16G U23G], with 1.16; and GGCCGGCAUGGUCCCGGCCUCCCCGCUGGCGCCGGCUGGGCAACAUUCCGAGGGGACCGUCCCCUCGGUAAUGGCGAAUGGGACCCA [A16G U23C], with 1.14. In the case of GGCCGGCAUGGUCCCGGCCUCCACGCUGGCGCCGGCUGGGCAACAUUCCGAGGGGACCGUCCCCUCGGUAAUGGCGAAUGGGACCCA [A16G U23A] it was 1.11.

For GGCCGGCAUGGUCCCUGCCUCCUCGCUGGCGCCGGCUGGGCAACAUUCCGAGGGGACCGUCCCCUCGGUAAUGGCGAUUGGGACCCA [A16U A78U], the self-cleavage was found to be 0.332. For GGCCGGCAUGGUCCCUGCCUCCUCGCUGGCGCCGGCUGGGCACCAUUCCGAGGGGACCGUCCCCUCGGUAAUGGCGAAUGGGACCCA [A16U A43C], the self-cleavage turned out to be 0.32. Then GGCCGGCAUGGUCCCUGCCUCCUCGCUGGCGCCGGCUGGGCAGCAUUCCGAGGGGACCGUCCCCUCGGUAAUGGCGAAUGGGACCCA [A16U A43G], with 0.453; and GGCCGGCAUGGUCCCUGCCUCCUCGCUGGCGCCGGCUGGGCAACGUUCCGAGGGGACCGUCCCCUCGGUAAUGGCGAAUGGGACCCA [A16U A45G], with 0.982; and GGCCGGCAUGGUCCCGGCCUCCUCGCUGGCGCCGGCUGAGCAACAUUCCGAGGGGACCGUCCCCUCGGUAAUGGCGAAUGGGACCCA [A16G G39A], with 0.404. Then GGCCGGCAUGGUCCCGGCCUCCUCGCUGGCGCCGGCUGGGCAACAUUCCGAGGGGACCGUCCCCUCGGUAAUGGCGAAUGGUACCCA [A16G G82U], with 0.237. GGCCGGCAUGGUCCCGGCCUCCUCGCUGGCGCCGGCUGGGCAACAUUCCGAGGGUACCGUCCCCUCGGUAAUGGCGAAUGGGACCCA [A16G G55U]: the self-cleavage was found to be 0.914. Then GGCCGGCAUGGUCCCGGCCUCCUCGCUGGCGCCGGCUGGGCAACAUUCCGAGGGCACCGUCCCCUCGGUAAUGGCGAAUGGGACCCA [A16G G55C], with 1.2; and GGCCGGCAUGGUCCCGGCCUCCUCGCUGGCGCCGGCUGGGCAACAUUCCGAGGUGACCGUCCCCUCGGUAAUGGCGAAUGGGACCCA [A16G G54U], with 0.72. In the case of GGCCGGCAUGGUCCCGGCCUCCUCGCUGGCGCCGCCUGGGCAACAUUCCGAGGGGACCGUCCCCUCGGUAAUGGCGAAUGGGACCCA [A16G G35C] it was 0.138; in that of GGCCGGCAUGGUCCCGGCCUCCUCGCUGGCGCCGUCUGGGCAACAUUCCGAGGGGACCGUCCCCUCGGUAAUGGCGAAUGGGACCCA [A16G G35U], 0.375. Then GGCCGGCAUGGUCCCGGCCUCCUCGCUGGCGCCGGCUGGGCAACAUUCCGAGGGGACCGUCCCCUCCGUAAUGGCGAAUGGGACCCA [A16G G67C], with 0.849; and GGCCGGCAUGGUCCCGGCCUCCUCGCUGGCGCCGGCCGGGCAACAUUCCGAGGGGACCGUCCCCUCGGUAAUGGCGAAUGGGACCCA [A16G U37C], with 0.997. With GGCCGGCAUGGUCCCGGCCUCCUCGCUGGCGCCGGCAGGGCAACAUUCCGAGGGGACCGUCCCCUCGGUAAUGGCGAAUGGGACCCA [A16G U37A], the self-cleavage worked out at 0.115. In the case of GGCCGGCAUGGUCCCGGCCUCCUCGCUGGCGCCGGCGGGGCAACAUUCCGAGGGGACCGUCCCCUCGGUAAUGGCGAAUGGGACCCA [A16G U37G] it was 0.119.

Take GGCCGGCAUGGUCCCGGCCUCCUCGCUGGCGCCGGCUGGGCAACAUUCCGAGGGGACCGUCCCCUCGGUAAUGGCAAAUGGGACCCA [A16G G76A]: the self-cleavage is 1.07. In the case of GGCCGGCAUGGUCCCGGCCUCCUCGCUGGCGCCCGCUGGGCAACAUUCCGAGGGGACCGUCCCCUCGGUAAUGGCGAAUGGGACCCA [A16G G34C] it was 0.0536; in that of GGCCGGCAUGGUCCCGGCCUCCUCGCUGGCGCCUGCUGGGCAACAUUCCGAGGGGACCGUCCCCUCGGUAAUGGCGAAUGGGACCCA [A16G G34U], 0.324; in that of GGCCGGCAUGGUCCCGGCCUCCUCGCUGGCGCCAGCUGGGCAACAUUCCGAGGGGACCGUCCCCUCGGUAAUGGCGAAUGGGACCCA [A16G G34A], 0.17.
